Positions count from the first letter of the chain named. Names and notes keep the numbering of the source.
T1: NOGGIN (NOG) (UniProt Q13253 28-232)
T1 construct: NOGGIN (NOG), BMP antagonist
T1 sequence (looked up): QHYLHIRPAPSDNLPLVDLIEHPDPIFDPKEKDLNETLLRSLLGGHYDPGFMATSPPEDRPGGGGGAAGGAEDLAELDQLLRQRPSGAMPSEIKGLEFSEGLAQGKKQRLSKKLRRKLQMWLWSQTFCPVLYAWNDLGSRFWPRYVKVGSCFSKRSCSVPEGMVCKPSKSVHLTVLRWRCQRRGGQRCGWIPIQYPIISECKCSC

B1: recombinant human GDF5 (Growth and Differentiation Factor 5), wild type (ligand, UniProt P43026 28-501, looked up)
chain: APLATRQGKRPSKNLKARCSRKALHVNFKDMGWDDWIIAPLEYEAFHCEGLCEFPLRSHLEPTNHAVIQTLMNSMDPESTPPTCCVPTRLSPISILFIDSANNVVYKQYEDMVVESCGCR
notes: Growth and Differentiation Factor 5 (GDF5), human, recombinant protein; also called rhGDF5; GDF5^wt; source: recombinant, provided by Biopharm GmbH, dissolved in 10 mM HCl
B2: recombinant human GDF5 variant W414R (ligand, UniProt P43026 28-501, looked up)
chain: B1 chain with W33R
notes: Growth and Differentiation Factor 5 (GDF5), human, recombinant protein with the patient mutation p.W414R; The mutation was found in a family with SYNS2 and BDA1 (c.T1240C); also called rhGDF5^W414R; GDF5^W414R; source: recombinant, provided by Biopharm GmbH, dissolved in 10 mM HCl
B3: BMP receptor type IB (BMPR1B) ectodomain (domain or fragment, UniProt O00238 14-126, looked up)
chain: KKEDGESTAPTPRPKVLRCKCHHHCPEDSVNNICSTDGYCFTMIEEDDSGLPVVTSGCLGLEGSDFQCRDTPIPHQRRSIECCTERNECNKDLHPTLPPLKNRDFVDGPIHHR
notes: BMP receptor type IB (BMPR1B), ectodomain

Tests used:
Experiment in all cases: SPR; BIA2000 system (Biacore); NOG and ectodomains of BMPR1A and BMPR1B immobilised, GDF5 proteins as analyte; apparent KD; mean of two experiments with at least six analyte concentrations
Conditions in all cases: both partners purified
NOGGIN (NOG) = molecular target: T1, NOGGIN (NOG)
[1] = molecular target: T2, BMP receptor type IA (BMPR1A) ectodomain (UniProt P36894 24-152)
T2 construct: BMP receptor type IA (BMPR1A), ectodomain
T2 sequence (P36894 24-152): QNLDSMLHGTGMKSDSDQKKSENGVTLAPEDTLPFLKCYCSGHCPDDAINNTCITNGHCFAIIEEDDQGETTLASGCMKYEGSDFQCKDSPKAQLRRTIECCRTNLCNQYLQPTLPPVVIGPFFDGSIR

[2] = molecular target: B2

| Kd (NOGGIN (NOG)) | Kd [1] | Kd [2] | Binder |
| --- | --- | --- | --- |
| 2 nM | – | – | B1 |
| 25.5 nM | 124 nM | – | B2 |
| – | – | 3.3 nM | B3 |

From publication PMC3789827, “A GDF5 Point Mutation Strikes Twice - Causing BDA1 and SYNS2” (PLoS Genetics, 2013)
